Measured values as given in the DeepSol protein solubility set.

Assay: soluble on expression in E. coli; label from the status in PepcDB or PDB records

Sequence | soluble on expression in E. coli
MGSDKIHHHHHHMQKDKIKTDWSHGENPEDYKCCVAFHGHDCPGLAVGYRAAQAALAALCGERAEDEELVAIVETDACGVDALQVLTGCTFGKGNLIYQDHGKHVFTLIERKSGRGVRVALKAGVMEMNERHLTLMEKVHQMTATPHETAEFWKIHSQKALEILQKPIETLFNIQPINRTLPPKARREPSRLCARCGEPAMGSKLVVLDGREVCRDCLQPEER | not soluble
MGSDKIHHHHHHMQLKLSSVSKKFDHKIILEDTSFTFEQGKIYGLLGRNGAGKTTLFNCIARNLTLDGGSIQFVKDEIAFDYDNTDIGFTQTYPQLPAFMTAYEFVRFYMDIHKDKLKSPRSPEEWLNLVGIGEEDRHRLLKDFSHGMQNKVQLLLSLIVQPPVLLLDEPLTSFDPVAAHEFKQLIREAKKDSVIIFSTHILQLAQDLCDEIVLLHHQELQAVPSDKLHDPDFEQEVVTLLTAD | not soluble
MGSDKIHHHHHHMQNVNSAFEYCDQLVKDFERVIEHPIVSKSSVYYTGIDLGTAYIVLAVLDENYQPVAGAYRFANVVKDGMVVDYIGAIRIVKELKQELEERLDTELVYAAAALPPGTMALDSGVIKHVVQGAGFEITNLLDEPTAANAVLKIKDGAIVDIGGGTTGITILKDGEVIYVADEPTGGTHFSLVIAGAYKMSFDEAENYKQNPKNHRELTPVVGPVVEKVSSILNRHLRDYQVETIYLVGGTCCLEGIETIIARQTGIPTYKPQNPMFVTPLGIALNCTQEIL | not soluble
MGSDKIHHHHHHMQQAHNDGVVSAMSQATDARLAAQDLARQLLHPHLGFVLFFCSAEYDLQALGEALEQDFGGIRLVGCTSAGEITPLGYGRNCVTAVGFDHRHFSIATALIDEMERFSLIDAQQMVERLVGTCRSNTLAPIKGHSFALTLLDGLSSREEMVLAALSAALGDIPHFGGSAGDDNYLNRTHVYYGGAFHNGAAVVVLVNTWLDFEVFTTHHILPRQEKLVVTGADSAQRRVFELNAEPAAEEYARHIGVPVAALDHRVFAAHPLAVRIHDQYYVRAIQQMHPDLSLSFYCAVENGIVLTAMTPGPLLPNLHQLFDGLHQRLGPLLLTIGCDCFLRRLELEAHRGLEPVGAFLREQRVIGFNTYGEQFNGMHINQTFTGVAIARNRPPVGR | not soluble
MGSDKIHHHHHHMQQPLAYRMRPRHLDEVVGQQHLVGPGKIIRRMVEAKMLSSMILYGPPGTGKTSIASAIAGSTNYAFRMLNAATDTKKDLQIVAEEAKMSGTVILLLDEIHRLDKTKQDFLLPHLENGRIIMIGATTENPYITINPAIRSRTQIFEVKPLTETDIQQAIQEALTDSTRGLGDYPVHLEEKALQHLTRATNGDLRSALNGLELAVKSTPKNEQGEIKITLPIIEECVQRKALTHVKDGDAHYDVISAFQKSIRGSDVDAALHYLGRLVEAGDLPIICRRLMVIAYEDIGLGNPAAAARTVTAVQAAEKLGFPEARIPLASVVIDLCLSPKSNSAVTAIDAALADIRQGSVGDVPDHLRDAHYAGAKELNRGIGYQYPHNFENGWVNQQYLPDKLKEARYYEPIDIGKYEQALHQQLKRIQEWKQKK | not soluble
MGSDKIHHHHHHMQTAARRSFDYDMPLIQTPTSACQIRQAWAKVADTPDRETADRLKDEIKALLKETNAVLVAHYYVDPLIQDLALETGGCVGDSLEMARFGAEHEAGTLVVAGVRFMGESAKILCPEKTVLMPDLEAECSLDLGCPEEAFSAFCDQHPDRTVVVYANTSAAVKARADWVVTSSVALEIVSYLKSRGEKLIWGPDRHLGDYICRETGADMLLWQGSCIVHNEFKGQELAALKAEHPDAVVLVHPESPQSVIELSDVVGSTSKLLKAAVSRPEKKFIVATDLGILHEMQKQAPDKQFIAAPTAGNGGSCKSCAFCPWMAMNSLGGIKYALTSGRNEILLDRKLGEAAKLPLQRMLDFAAGLKRGDVFNGMGPA | not soluble
MGSDKIHHHHHHMQVVLRIDEKDTRTLQQQVFHQIRALILEGRLRSGDPVPASRELSQQLGVSRNTVLIAYEHLLSEGYLESRANVGTFVSSALPEMSMSTLTSPANDQPSEPSGQSPAPACMPLLEHSVISPNRKKDTVDFWVGRSDGSAFPAREWRRILDTKLRHAKGQLSEYHDPRGLREFRQALADHIGPTRGVLAKPEDVVCVGGSQDGLALIARAFSRTFRTFIHEDPCYLGARAVFSNFSYDTVAVPVDRDGLRVDLLPETGRSLLYVTPSHQYPTGVTLSLERRLQLLQWAERTDSIVIEDDYDGDFRYEGTPLTALRGLDRAGRVIYLGTFSKSFGPAIRIGYLVSTAELSDAFAMWKGILSNGQPWLEQAAMADFITGGSFRRHLRRIRSTYMARRDLLARELTTRIPGTSIHGMRGGMHISARLPKGICAETLQKAAAEHRIAIYRARDCGAWLSPSNTDFDDLLVLGYAAVSDRNIRKAVDVLAHAAEQQSG | not soluble
MGSDKIHHHHHHMRDLLSKKSHRQLELLELLFEHKRWFHRSELAELLNCTERAVKDDLSHVKSAFPDLIFHSSTNGIRIINTDDSDIEMVYHHFFKHSTHFSILEFIFFNEGCQAESICKEFYISSSSLYRIISQINKVIKRQFQFEVSLTPVQIIGNERDIRYFFAQYFSEKYYFLEWPFENFSSEPLSQLLELVYKETSFPMNLSTHRMLKLLLVTNLYRIKFGHFMEVDKDSFNDQSLDFLMQAEGIEGVAQSFESEYNISLDEEVVCQLFVSYFQKMFFIDESLFMKCVKKDSYVEKSYHLLSDFIDQISVKYQIEMENKDNLIWHLHNTAHLYRQELFTEFILFDQKGNTIRNFQNIFPKFVSDIKKELSHYLETLEVCSSSMMVNHLSYTFITHTKHLVINLLQNQPKLKVLVMSNFDQYHAKFVAETLSYYCSNNFELEVWTELELSKESLEDSPYDIIISNFIIPPIENKRLIYSNNINTVSLIYLLNAMMFIRLDE | not soluble
MGSDKIHHHHHHMRDYSPYPLLVDVCVTNRCNLSCSYCSAEAGPFASKKGEMSVEKLDSIFRELNLMGVPRVGVTGGEPFIRDDILDILKAFDKYHFAKVLNTNGNLITDSVAKELSKLHLDRICVTVDGSCSKVHDSQRGKGSFKKAIEGIKNLQRYNLPVSTLFTLGRHNVDDLINTIRLNDMLRIKYMSVMIICPTGRANNGSILADKKHWYPVFLDLTERLSRGEFKVKFKIVPPNESDVFWTHYFPLAFYNRLDLLESVWHQSLNFNSNKKREISCQAGVRACSINHKGDVYGCDLMNGIDELVAGNVKEKSFYEIWHNSSIFHKLRNITFDDISGKCAGCPLPWCGGGCRCSALELDGTLLGSDLACFYDEEESVLV | not soluble
MGSDKIHHHHHHMREEWLFSRYLNRKRVQRAASLGAGRAETEIALLELGAVEHFDLFDVSSVGIEYAKSIAEEKGFGHKVTCHVGPIGCAELNENTYDLITFVASLHHMEPLAETLERANRALTQHGIIWCANEYIGPDRFDYPVAHAAIAKSFFQQIPPGLRNHWHRELQFPTPQEVAEVDPTEAPCSSKIEPTMRDMFPALEIMPLYGAFAFMVFWGLNHDALYETPEGTELTRFILGMDKALTDAGILPTYFAHIIARKNNAPRQQIHRPGRHSSALLYRYAQRAASILRHLKIR | not soluble
MGSDKIHHHHHHMRGEQSPNGLHYAREHLSCKNYMTDIDTGFKYIKFDTEKCIEEEYTHKNYLLFFLEGDFSVYCNQFCNRTFHSNEMVVLPKSSMIKISATDKSQMLAMAFDIPQSNCDKLLFQGLSSICENIDYDFSPIPMRYPLMPFLETVVHCLRNEMNCTYLHNVIEREFFFLLRGFYNKKEIATLFHPIIGRQLEFRDFVMQNYSKVNNLDELITLSNIGRTSFFIKFKEEFGITAKQWMMKQLKKRILGKVIEPGICVKQLMEVCNFESQAQLYRYFKQHFRCTPKQLIDRYQAKTDNL | not soluble
MGSDKIHHHHHHMRGIVLFPIINCSGAMVEITSTEMTPPVNDSHEFIPMRGIRNRHLQTMLPRLIRRKVKFNAHWQRLELPDGDFVDLAWSEDPQQAKYKPRLVVFHGLEGSLNSPYAHGLIEAAQKRGWLGVVMHFRGCSGEPNRLNRIYHSGETEDGAWFLRWLQREFGAVPTAAVGYSLGGNMLACLLAKEGRDIPIEAAVIVSAPFVLEACSYHMDKGFSRVYQRYLLNLLKANASRKLAAYPGSLPVNLAQLKSMRRIREFDDLITAKIHGFADAIDYYRQCSAMPLLNQIAKPTLIIHAKDDPFMDHHVIPKAEDLPPQVEYQLTEHGGHVGFIGGTPLRPEMWLERRIPDWLTTYLEASS | not soluble
MGSDKIHHHHHHMRGPLRGKVSFPWGLRPLPMLVYHEFGRSMTRPVIGIIGNHHLINDQYATHAGGIMNSEAVAEVSGGLPLIVPSNPAFVDLDDLMATCAGFVFTGGRPNVHPEEYGEDYTDAHGTMDRDRDALTLPLIRACVERGQPILGLCRGFQEVNVAMGGSLYPEIRDLPGRMNHRMPPDGTIEEKFELRHTVTFTEGGPFHRLMGAQQVRTNTLHGQGIKQAGARVIIDGHAEDGTPEAIYIADAPGFTLSVQWHPEYRAAEDPVSRPLFAAFGEAARAWSIGKRPVKAGEVA | not soluble
MGSDKIHHHHHHMRIALDPYMYRHLSLGAMVDKTAELGYDYIELSPREDFMPFYKYPRVDRARIREFRKALSDAGVKLSSLLPLYHWAAPDEDLRIAAVRNWKRAIEVAVEMDCDLMNTEFSGQSDHALVCENQFMKSMDELMPHFEREGIKLDIQAHPYDFCERNNESVDIIRGLDRDWINYLYAAPHTFFYDDGVGDIASMLRYAGDRLTHLIIADTYNHRASSNLRYIVNPPGVTATVHQHLDIGQGEVNWEAFFSTLRDIKFDGIATVAVFAWEERADESSRFMLERVKSELLR | not soluble
MGSDKIHHHHHHMRIEVKLLPLKDNPILPFNYNYEVYSQILEKVNSIEPTIAKLLSSPHGFWTFSRIIVRKRKILPDKGIEILSDDVSLYISSSNEDIIRAIAEAVEKSPEFKIGELSFLVGDIKAIKVKELGKENVFSTLSPIVVRTVKFEGNKLRHWDLYPHDELFMDRLRKVMILRYSEVMGETPKDRDFTIEVLKFKPTRLMVGSSYIRGSLMVFRYAGSEEIARFGYENGFGEKTGLGFGMVKLIE | not soluble
MGSDKIHHHHHHMRIFLVGMMGSGKSTIGKRISEVLDLQFIDMDEEIERREGRSVRRIFEEDGEEYFRLKEKELLKELVERDNVVVATGGGVVVDPENRELLKKEKTLFLYAPPEVLMERVTTENRPLLSEGKERIREIWEKRKQFYAEFRRIDTSRLNEWETTALVVLEALDEKEISTIEKPHLVKIILGGFKRVRNEELVFTTERVEKIYGRYLPENRLLFPDGEEVKTLEHVSRAYYELIRMDFPRGKTIAGVGGGALTDFTGFVASTFKRGVGLSFYPTTLLAQVDASVGGKNAIDFAGVKNVVGTFRMPDYVIIDPTVTLSMDEGRFEEGVVEAFKMTILSGRGVELFDEPEKIEKRNLRVLSEMVKISVEEKARIVMEDPYDMGLRHALNLGHTLGHVYEMLEGVPHGIAVAWGIEKETMYLYRKGIVPKETMRWIVEKVKQIVPIPVPSVDVEKARNLILNDKKILKGSRVRLPYVKEIGKIEFLEVDPLELLEVVD | not soluble
MGSDKIHHHHHHMRILWINHRDPKHPQAGGAEVRLYEIARRLVKMGHEVMVLCEKVSRLPGEEVLEGIRIKRSGGRASIHLLAPLYVRKHGHEYDVIVDDIAHAVPWYSPLVTKTPVVAQIHHVHQDVVYIELPKPLAWIVSRAEKTIAKIYRRFIAVSQSTKKELAKRLGIDPDRIAVVPNGVDLEKYRPGSKDPRPTILWAGRIKMYKNLDHLLKAYRIVKQEIPDAQLIIIGTGDQEQKMRELAKKLEPRDVHFLGKMSEQEKIMWMQRAWIIVSTSMIEGWGITITEAAACKIPAIAYNVPGLRDSVKHMETGILVEPGNIEQLAKAIAWLLTDNSLRNKLSENAYNYAQSFSWDNTAITFLNILEDITRI | not soluble
